The Emax is the maximal effect, on the per cent scale that the assay sets.

The text below walks through data of patent US20230364248A1 (Novo Nordisk, published 2023).

The test deals with full length MIC-1 receptor (hGFRAL) and its full signaling co-receptor hRET51, stably expressed in BHK21 cells (human, UniProt Q6UXV0 19-394; P07949 29-1114). Kind of test: cell-based or functional assay.
full length MIC-1 receptor (hGFRAL) and its full signaling co-receptor hRET51, stably expressed in BHK21 cells, sequence (Q6UXV0 19-394, chain 1 of 2): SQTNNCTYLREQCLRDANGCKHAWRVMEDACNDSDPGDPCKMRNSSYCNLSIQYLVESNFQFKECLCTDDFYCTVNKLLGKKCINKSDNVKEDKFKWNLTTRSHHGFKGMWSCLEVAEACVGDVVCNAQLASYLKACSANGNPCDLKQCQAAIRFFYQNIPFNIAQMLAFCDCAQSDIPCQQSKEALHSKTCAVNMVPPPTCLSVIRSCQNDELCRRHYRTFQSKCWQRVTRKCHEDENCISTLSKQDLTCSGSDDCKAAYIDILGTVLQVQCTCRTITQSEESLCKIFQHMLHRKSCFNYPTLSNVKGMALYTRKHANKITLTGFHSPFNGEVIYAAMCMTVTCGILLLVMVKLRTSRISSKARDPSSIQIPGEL
full length MIC-1 receptor (hGFRAL) and its full signaling co-receptor hRET51, stably expressed in BHK21 cells, sequence (P07949 29-1114, chain 2 of 2): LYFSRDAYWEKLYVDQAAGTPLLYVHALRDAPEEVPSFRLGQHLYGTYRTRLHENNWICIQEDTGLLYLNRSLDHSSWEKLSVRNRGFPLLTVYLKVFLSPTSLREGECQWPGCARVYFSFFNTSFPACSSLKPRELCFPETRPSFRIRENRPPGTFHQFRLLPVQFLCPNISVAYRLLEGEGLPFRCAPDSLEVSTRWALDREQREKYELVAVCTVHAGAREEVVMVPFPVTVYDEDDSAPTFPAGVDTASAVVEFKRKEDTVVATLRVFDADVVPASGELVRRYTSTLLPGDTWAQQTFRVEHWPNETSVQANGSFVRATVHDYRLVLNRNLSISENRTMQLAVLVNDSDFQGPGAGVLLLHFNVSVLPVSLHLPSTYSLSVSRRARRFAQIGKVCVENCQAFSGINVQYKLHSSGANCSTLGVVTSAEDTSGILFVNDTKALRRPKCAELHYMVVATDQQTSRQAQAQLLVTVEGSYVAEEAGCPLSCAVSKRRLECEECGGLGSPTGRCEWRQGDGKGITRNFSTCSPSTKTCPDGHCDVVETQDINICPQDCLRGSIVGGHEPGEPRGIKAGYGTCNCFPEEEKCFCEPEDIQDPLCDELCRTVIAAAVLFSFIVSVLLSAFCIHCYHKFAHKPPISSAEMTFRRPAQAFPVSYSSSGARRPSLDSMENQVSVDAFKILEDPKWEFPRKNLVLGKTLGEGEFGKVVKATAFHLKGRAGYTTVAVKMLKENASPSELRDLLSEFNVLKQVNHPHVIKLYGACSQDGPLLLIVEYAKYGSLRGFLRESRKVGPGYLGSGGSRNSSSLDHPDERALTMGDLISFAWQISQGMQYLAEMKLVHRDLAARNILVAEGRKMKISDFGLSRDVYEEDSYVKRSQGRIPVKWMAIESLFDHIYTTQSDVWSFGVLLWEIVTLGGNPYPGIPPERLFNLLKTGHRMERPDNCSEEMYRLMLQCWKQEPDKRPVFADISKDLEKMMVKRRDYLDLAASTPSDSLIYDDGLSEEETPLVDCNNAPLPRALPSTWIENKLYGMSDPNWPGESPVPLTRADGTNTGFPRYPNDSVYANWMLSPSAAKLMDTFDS

B1: MIC-1 (SEQ ID NO: 1) (ligand)
chain: ARNGDHCPLGPGRCCRLHTVRASLEDLGWADWVLSPREVQVTMCIGACPSQFRAANMHAQIKTSLHRLKPDTVPAPCCVPASYNPMVLIQKTDTGVSLQTYDDLLAKDCHCI
B1 registered an Emax of 100%.
